Experimental data from patent US20150266922.

Molecular target: SUMO1 (UniProt P63165)
Sequence (P63165 1-97): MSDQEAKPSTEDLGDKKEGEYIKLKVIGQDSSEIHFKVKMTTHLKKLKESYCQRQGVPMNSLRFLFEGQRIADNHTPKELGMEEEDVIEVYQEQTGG

## recombinant DPP9V285A (insect cells)
  hydrolysis of GP-AMC by DPP9 V285A: the SUBA mutant DPP9V285A was not activated by SUMO1
